Source: patent publication US20150023971A1

What was measured:
[1] = target: T1, …; assay: SPOT length analysis, dot 18, anti-histidine detection
T1 sequence (peptide): FRSSDFAKNFV

AKNF [2] = target: T2, AKNF; assay: SPOT length analysis, dot 87, HRP-S-protein detection
T2 sequence (peptide): AKNF

AKNFVQ = target: T3, AKNFVQ; assay: SPOT length analysis, dot 64, anti-histidine detection
T3 sequence (peptide): AKNFVQ

SDFAKN = target: T4, SDFAKN; assay: SPOT length analysis, dot 61, HRP-S-protein detection
T4 sequence (peptide): SDFAKN

RSSDFA = target: T5, RSSDFA; assay: SPOT length analysis, dot 59, HRP-S-protein detection
T5 sequence (peptide): RSSDFA

SSDFA = target: T6, SSDFA; assay: SPOT length analysis, dot 71, HRP-S-protein detection
T6 sequence (peptide): SSDFA

AKNFV = target: T7, AKNFV; assay: SPOT length analysis, dot 75, HRP-S-protein detection
T7 sequence (peptide): AKNFV

KNFVQ = target: T8, KNFVQ; assay: SPOT length analysis, dot 76, HRP-S-protein detection
T8 sequence (peptide): KNFVQ

NFVQTD = target: T9, NFVQTD; assay: SPOT length analysis, dot 66, anti-histidine detection
T9 sequence (peptide): NFVQTD

[3] = target: T10, sortilin peptide … on SPOT membrane; assay: SPOT length analysis, dot 1, anti-histidine detection
T10 sequence (peptide, C-terminus anchored to the cellulose membrane through a beta-alanine linker): RIFRSSDFAKNFVQTD

[4] = target: T11, …; assay: SPOT length analysis, dot 15, HRP-S-protein detection
T11 sequence (peptide): SSDFAKNFVQTD

[5] = target: T12, …; assay: SPOT length analysis, dot 28, anti-histidine detection
T12 sequence (peptide): DFAKNFVQTD

KNFVQTD [6] = target: T13, KNFVQTD; assay: SPOT length analysis, dot 55, HRP-S-protein detection
T13 sequence (peptide): KNFVQTD

FAKN = target: T14, FAKN; assay: SPOT length analysis, dot 86, anti-histidine detection
T14 sequence (peptide): FAKN

DFAK [7] = target: T15, DFAK; assay: SPOT length analysis, dot 85, HRP-S-protein detection
T15 sequence (peptide): DFAK

RSSDFAK = target: T16, RSSDFAK; assay: SPOT length analysis, dot 49, anti-histidine detection
T16 sequence (peptide): RSSDFAK

RSSDFAKN = target: T17, RSSDFAKN; assay: SPOT length analysis, dot 40, HRP-S-protein detection
T17 sequence (peptide): RSSDFAKN

[8] = target: T18, …; assay: SPOT length analysis, dot 26, anti-histidine detection
T18 sequence (peptide): SSDFAKNFVQ

RIFRSSD = target: T19, RIFRSSD; assay: SPOT length analysis, dot 46, anti-histidine detection
T19 sequence (peptide): RIFRSSD

[9] = target: T20, …; assay: SPOT length analysis, dot 25, anti-histidine detection
T20 sequence (peptide): RSSDFAKNFV

[10] = target: T21, …; assay: SPOT length analysis, dot 4, HRP-S-protein detection
T21 sequence (peptide): RIFRSSDFAKNFVQ

SDFAKNF = target: T22, SDFAKNF; assay: SPOT length analysis, dot 51, HRP-S-protein detection
T22 sequence (peptide): SDFAKNF

[11] = target: T10, sortilin peptide … on SPOT membrane; assay: SPOT length analysis, dot 1, HRP-S-protein detection
[12] = target: T23, …; assay: SPOT length analysis, dot 29, anti-histidine detection
T23 sequence (peptide): RIFRSSDFA

AKNF [13] = target: T2, AKNF; assay: SPOT length analysis, dot 87, anti-histidine detection
[14] = target: T24, …; assay: SPOT length analysis, dot 5, HRP-S-protein detection
T24 sequence (peptide): IFRSSDFAKNFVQT

[15] = target: T25, …; assay: SPOT length analysis, dot 19, HRP-S-protein detection
T25 sequence (peptide): RSSDFAKNFVQ

[16] = target: T26, …; assay: SPOT length analysis, dot 12, HRP-S-protein detection
T26 sequence (peptide): IFRSSDFAKNFV

[17] = target: T20, …; assay: SPOT length analysis, dot 25, HRP-S-protein detection
SSDFAK = target: T27, SSDFAK; assay: SPOT length analysis, dot 60, anti-histidine detection
T27 sequence (peptide): SSDFAK

FVQT = target: T28, FVQT; assay: SPOT length analysis, dot 90, anti-histidine detection
T28 sequence (peptide): FVQT

[18] = target: T29, …; assay: SPOT length analysis, dot 7, anti-histidine detection
T29 sequence (peptide): RIFRSSDFAKNFV

[19] = target: T30, sortilin peptide RIFRSSDF on SPOT membrane; assay: SPOT length analysis, dot 37, anti-histidine detection
T30 sequence (peptide, C-terminus anchored to the cellulose membrane through a beta-alanine linker): RIFRSSDF

IFRS = target: T31, IFRS; assay: SPOT length analysis, dot 80, HRP-S-protein detection
T31 sequence (peptide): IFRS

DFAKN = target: T32, DFAKN; assay: SPOT length analysis, dot 73, HRP-S-protein detection
T32 sequence (peptide): DFAKN

SDFAKNFV = target: T33, SDFAKNFV; assay: SPOT length analysis, dot 42, anti-histidine detection
T33 sequence (peptide): SDFAKNFV

[20] = target: T34, …; assay: SPOT length analysis, dot 33, anti-histidine detection
T34 sequence (peptide): SSDFAKNFV

FRSSD = target: T35, FRSSD; assay: SPOT length analysis, dot 69, HRP-S-protein detection
T35 sequence (peptide): FRSSD

[21] = target: T36, …; assay: SPOT length analysis, dot 8, HRP-S-protein detection
T36 sequence (peptide): IFRSSDFAKNFVQ

[22] = target: T37, …; assay: SPOT length analysis, dot 31, HRP-S-protein detection
T37 sequence (peptide): FRSSDFAKN

KNFVQTD [23] = target: T13, KNFVQTD; assay: SPOT length analysis, dot 55, anti-histidine detection
DFAK [24] = target: T15, DFAK; assay: SPOT length analysis, dot 85, anti-histidine detection
[25] = target: T37, …; assay: SPOT length analysis, dot 31, anti-histidine detection
IFRSSDF = target: T38, IFRSSDF; assay: SPOT length analysis, dot 47, HRP-S-protein detection
T38 sequence (peptide): IFRSSDF

IFRSSD = target: T39, IFRSSD; assay: SPOT length analysis, dot 57, anti-histidine detection
T39 sequence (peptide): IFRSSD

[26] = target: T12, …; assay: SPOT length analysis, dot 28, HRP-S-protein detection
[27] = target: T40, …; assay: SPOT length analysis, dot 10, anti-histidine detection
T40 sequence (peptide): RSSDFAKNFVQTD

RIFRS = target: T41, RIFRS; assay: SPOT length analysis, dot 67, anti-histidine detection
T41 sequence (peptide): RIFRS

RIFRSS = target: T42, RIFRSS; assay: SPOT length analysis, dot 56, HRP-S-protein detection
T42 sequence (peptide): RIFRSS

BLU His [1]: 19400 BLU
BLU Sprotein (AKNF [2]): 13700 BLU
BLU His (AKNFVQ): 15600 BLU
BLU Sprotein (SDFAKN): 15600 BLU
BLU Sprotein (RSSDFA): 15900 BLU
BLU Sprotein (SSDFA): 14700 BLU
BLU Sprotein (AKNFV): 15900 BLU
BLU Sprotein (KNFVQ): 15700 BLU
BLU His (NFVQTD): 15400 BLU
BLU His [3]: 57000 BLU
BLU Sprotein [4]: 22400 BLU
BLU His [5]: 17400 BLU
BLU Sprotein (KNFVQTD [6]): 16800 BLU
BLU His (FAKN): 15200 BLU
BLU Sprotein (DFAK [7]): 13300 BLU
BLU His (RSSDFAK): 17300 BLU
BLU Sprotein (RSSDFAKN): 17200 BLU
BLU His [8]: 17800 BLU
BLU His (RIFRSSD): 20200 BLU
BLU His [9]: 23000 BLU
BLU Sprotein [10]: 172000 BLU
BLU Sprotein (SDFAKNF): 17200 BLU
BLU Sprotein [11]: 137000 BLU
BLU His [12]: 43400 BLU
BLU His (AKNF [13]): 14600 BLU
BLU Sprotein [14]: 190000 BLU
BLU Sprotein [15]: 22400 BLU
BLU Sprotein [16]: 199000 BLU
BLU Sprotein [17]: 25400 BLU
BLU His (SSDFAK): 16100 BLU
BLU His (FVQT): 15600 BLU
BLU His [18]: 102000 BLU
BLU His [19]: 116000 BLU
BLU Sprotein (IFRS): 111000 BLU
BLU Sprotein (DFAKN): 15600 BLU
BLU His (SDFAKNFV): 16300 BLU
BLU His [20]: 18900 BLU
BLU Sprotein (FRSSD): 15000 BLU
BLU Sprotein [21]: 126000 BLU
BLU Sprotein [22]: 20300 BLU
BLU His (KNFVQTD [23]): 18300 BLU
BLU His (DFAK [24]): 14400 BLU
BLU His [25]: 20400 BLU
BLU Sprotein (IFRSSDF): 27800 BLU
BLU His (IFRSSD): 17900 BLU
BLU Sprotein [26]: 19000 BLU
BLU His [27]: 19800 BLU
BLU His (RIFRS): 115000 BLU
BLU Sprotein (RIFRSS): 94400 BLU
B1: recombinant his-S-tagged pro-domain of human BDNF (residues Ala1-Arg110), from pET-30 Xa/LIC, E. coli (protein, not shown: small tags and cut ends)
chain: APMKEANIRGQGGLAYPGVRTHGTLESVNGPKAGSGLTSLADTFEHVIEELLDEDQKVRPNEENNKDADLYTSRVMLSSQVPLEPPLLFLLEEYKNYLDAANMSMRVRR
